The text below walks through data of US20220332804A1 (CSL INNOVATION, published 2022).

In general, Kd refers to a measure of binding affinity in units of concentration. Higher therefore signals weaker binding.

Positions count from the first letter of the chain named.

Experiment in all cases: SPR, antibody captured, C2 as analyte;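 note: biacore SPR at 37 °C, anti-C2 mAbs captured via goat anti-human IgG on CM5 chips, double-referenced sensorgrams fit to a 1:1 kinetic or steady-state model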
A general note: Surface plasmon resonance follows binding to a sensor surface in real time, without labels.

Assay [1] concerns the target T1, human C2 T647A (human, UniProt P06681 21-752).
T1 sequence: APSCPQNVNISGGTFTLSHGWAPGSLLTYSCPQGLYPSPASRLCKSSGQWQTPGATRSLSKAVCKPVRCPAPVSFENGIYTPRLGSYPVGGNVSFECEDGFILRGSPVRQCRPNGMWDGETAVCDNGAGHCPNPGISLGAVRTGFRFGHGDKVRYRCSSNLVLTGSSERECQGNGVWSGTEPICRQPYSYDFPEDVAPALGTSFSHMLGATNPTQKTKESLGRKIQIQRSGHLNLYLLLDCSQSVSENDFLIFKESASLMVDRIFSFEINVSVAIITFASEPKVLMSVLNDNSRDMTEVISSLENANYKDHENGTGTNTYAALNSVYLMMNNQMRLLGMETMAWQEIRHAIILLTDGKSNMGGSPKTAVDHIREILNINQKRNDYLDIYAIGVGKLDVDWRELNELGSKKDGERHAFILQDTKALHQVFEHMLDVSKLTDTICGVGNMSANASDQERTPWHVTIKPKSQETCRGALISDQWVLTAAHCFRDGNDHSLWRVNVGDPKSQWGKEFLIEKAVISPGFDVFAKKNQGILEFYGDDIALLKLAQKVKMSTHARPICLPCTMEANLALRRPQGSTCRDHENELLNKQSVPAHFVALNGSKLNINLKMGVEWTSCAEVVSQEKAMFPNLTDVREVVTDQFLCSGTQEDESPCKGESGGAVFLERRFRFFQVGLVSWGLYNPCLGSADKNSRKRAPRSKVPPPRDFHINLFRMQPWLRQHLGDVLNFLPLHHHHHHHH
Protocol: (§1) Surface plasmon resonance (SPR, Biacore) was used for all binding affinity analyses. In brief, goat anti-human IgG was directly immobilised onto the carboxymethyl dextran surface of CM5 sensorchips to approximately 12,000 RU using standard NHS/EDC chemistry at pH 5. The immobilised antibody surface was pre-conditioned with ten injections of polyclonal human IgG (Privigen 60 s) prepared at 1 μg/mL. Ligands (anti-C2 mAbs) were captured at the beginning of each cycle as described below. An adjacent spot or flow cell in which only Polyclonal IgG was capture was used as a reference surface. The goat anti-human IgG Fc antibody surface was regenerate in 100 mM H3PO4, injected for 45 seconds at the end of each cycle. Experiments were performed at 37° C. and the flow rate of each experiment was kept constant at 30 μL/min.
(§2) Sensogram data was double-referenced against a reference anti-IgG surface (i.e. minus anti-C2 mAb) and blank buffer injections obtained within each experiment. The binding data was fit to 1:1 (kinetic or steady-state) model using local Rmax and null refraction index (RI=0) when appropriate. Buffers and solutions were filtered (0.22 μm) prior to use.

The target in assay [2] is T2, human C2 E433A (human, UniProt P06681 21-752).
T2 sequence: T1 sequence with E413A, A627T
Protocol: as §1, §2

Assay [3] deals with T3, human C2 N327A (human, UniProt P06681 21-752).
T3 sequence: T1 sequence with N307A, A627T
Protocol: as §1, §2

Assay [4] addresses T4, human C2 V448A (human, UniProt P06681 21-752).
T4 sequence: T1 sequence with V428A, A627T
Protocol: as §1, §2

B1: RF16-226 (antibody, human IgG4 S228P, lambda)
heavy: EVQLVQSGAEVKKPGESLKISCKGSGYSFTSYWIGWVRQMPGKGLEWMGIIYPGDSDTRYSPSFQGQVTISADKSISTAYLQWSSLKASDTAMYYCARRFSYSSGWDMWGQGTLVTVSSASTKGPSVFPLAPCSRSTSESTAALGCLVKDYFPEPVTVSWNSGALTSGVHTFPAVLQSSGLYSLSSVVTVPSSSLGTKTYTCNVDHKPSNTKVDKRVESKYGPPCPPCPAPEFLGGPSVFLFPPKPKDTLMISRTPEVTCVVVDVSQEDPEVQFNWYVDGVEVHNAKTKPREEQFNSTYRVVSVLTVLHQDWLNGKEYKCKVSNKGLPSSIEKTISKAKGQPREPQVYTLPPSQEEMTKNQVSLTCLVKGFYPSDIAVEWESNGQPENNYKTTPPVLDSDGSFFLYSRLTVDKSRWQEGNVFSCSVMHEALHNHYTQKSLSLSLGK
light: SYELTQPPSVSVSPGQTARITCSGDALTSKYVAWYQQKSGLAPLLVIYEDTRRPSGIPAKFSGSSSGSVATLTISGAHGDDEADYYCYSTDASGHQRVFGGGTKLTVLSQPKAAPSVTLFPPSSEELQANKATLVCLISDFYPGAVTVAWKADGSPVKAGVETTKPSKQSNNKYAASSYLSLTPEQWKSHRSYSCQVTHEGSTVEKTVAPTECS
notes: pH-dependent anti-C2 antibody from a phage display library; also called WT
Take B1: the Kd in assay [1] worked out at 147 nM; in assay [2] it was 2.6 nM; in assay [3] it was 67.4 nM; in assay [4], 4.4 nM.
